Data taken from patent US20250115664A1.

Columns and labels:
[1] = target: mouse TIM3 on cells (transfected cells, activated mouse T cells) (mouse) (UniProt Q8VIM0); assay: binding to activated mouse T cells, against TIM3.18 on human TIM3
[2] = target: mouse TIM3 on cells (transfected cells, activated mouse T cells) (mouse) (UniProt Q8VIM0); assay: binding to activated mouse T cells
[3] = target: cynomolgus TIM3 on cells (transfected CHO cells, activated cyno T cells, cyno spleen) (cynomolgus); assay: flow cytometry, cyno TIM3-transfected CHO cells (Geo-MFI); fit value of a flat negative-control curve, far beyond the tested range; unit from the axis label
[4] = target: human TIM3 on cells (transfected CHO cells, activated human T cells, Th1 cells, TILs) (human) (UniProt Q8TDQ0); assay: flow cytometry, human TIM3-transfected CHO cells (Geo-MFI); fit value of a flat negative-control curve, far beyond the tested range; unit from the axis label

Chain of cynomolgus TIM3 on cells (transfected CHO cells, activated cyno T cells, cyno spleen) (cynomolgus) (chain, as listed by the source limits assumed): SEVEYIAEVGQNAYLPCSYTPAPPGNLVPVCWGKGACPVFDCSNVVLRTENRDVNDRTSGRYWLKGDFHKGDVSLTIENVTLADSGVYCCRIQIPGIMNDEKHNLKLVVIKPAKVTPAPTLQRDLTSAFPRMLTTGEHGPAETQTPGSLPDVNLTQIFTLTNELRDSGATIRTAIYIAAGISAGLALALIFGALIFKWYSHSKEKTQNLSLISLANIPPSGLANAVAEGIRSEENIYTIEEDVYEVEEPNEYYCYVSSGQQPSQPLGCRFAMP
Chain of mouse TIM3 on cells (transfected cells, activated mouse T cells) (mouse) (Q8VIM0 20-281): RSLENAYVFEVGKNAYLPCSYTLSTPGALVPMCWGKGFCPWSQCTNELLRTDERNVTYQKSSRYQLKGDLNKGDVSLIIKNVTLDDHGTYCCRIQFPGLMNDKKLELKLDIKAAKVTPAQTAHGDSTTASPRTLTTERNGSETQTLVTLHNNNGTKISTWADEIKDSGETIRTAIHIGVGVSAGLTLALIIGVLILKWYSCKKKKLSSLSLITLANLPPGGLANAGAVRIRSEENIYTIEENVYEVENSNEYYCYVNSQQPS

fold weaker EC50 than TIM3.18 on human TIM3 [1]	EC50 [2]	EC50 [3]	EC50 [4]	Substance
17 fold	1.7 nM			RMT3-23 rat anti-mouse TIM3 antibody
		75.7 mg/mL	39.7 mg/mL	hIgG1 (antibody)
		44.5 mg/mL	42.3 mg/mL	hIgG2 (antibody)
		54.1 mg/mL	29.3 mg/mL	hIgG4 (antibody)
